Assay [1] has as its target anti-IL-13 IgG4 variant VH Y98L (human (humanized antibody)). Description: SPR. On the technique in general: SPR reads the build-up and loss of mass on a sensor chip optically.
Assay [2] has as its target human IL-13 (Homo sapiens) (UniProt P35225). The assay is described as follows: SPR.

Turning to “human IL-13 (from UniProt P35225 25-146) (ligand)”, in assay [1], the equilibrium dissociation constant (Kd) – broadly, the concentration at which binding is half-saturated – came to 0.0753 nM; the koff (as a rule, the rate constant with which the complex falls apart) turned out to be 8.76e-05 s⁻¹; the kon (in general, the second-order rate constant of association) is 1.16e+06 M⁻¹ s⁻¹.

Consider “anti-IL-13 IgG4 variant VH Y97L (antibody)”, for which, in assay [2], the Kd is < 0.01 nM, the koff is < 0.0001 s⁻¹ and the kon was 2.08e+06 M⁻¹ s⁻¹.

In the case of “anti-IL-13 IgG4 (lebrikizumab), parent (antibody)”, the kon in assay [2] was determined as 2.16e+06 M⁻¹ s⁻¹.

For the substance “anti-IL-13 IgG4 variant VH Y100Q (antibody)”, in assay [2], the Kd was 3.32 nM and the koff came to 0.00331 s⁻¹.

Source of the values: paper PMC6927759.
